Measured values: patent US20190062394A1

Legend:
Destabilized IL-12 #2 [1] = tested on: Destabilized IL-12 #2
Destabilized IL-12 #5 [2] = tested on: Destabilized IL-12 #5
Destabilized IL-12 #2 [3] = assay: cell-based or functional assay
Destabilized IL-12 #5 [4] = assay: cell-based or functional assay
Destabilized IL-12 #11 = target: T1, Destabilized IL-12 #11
T1 chain: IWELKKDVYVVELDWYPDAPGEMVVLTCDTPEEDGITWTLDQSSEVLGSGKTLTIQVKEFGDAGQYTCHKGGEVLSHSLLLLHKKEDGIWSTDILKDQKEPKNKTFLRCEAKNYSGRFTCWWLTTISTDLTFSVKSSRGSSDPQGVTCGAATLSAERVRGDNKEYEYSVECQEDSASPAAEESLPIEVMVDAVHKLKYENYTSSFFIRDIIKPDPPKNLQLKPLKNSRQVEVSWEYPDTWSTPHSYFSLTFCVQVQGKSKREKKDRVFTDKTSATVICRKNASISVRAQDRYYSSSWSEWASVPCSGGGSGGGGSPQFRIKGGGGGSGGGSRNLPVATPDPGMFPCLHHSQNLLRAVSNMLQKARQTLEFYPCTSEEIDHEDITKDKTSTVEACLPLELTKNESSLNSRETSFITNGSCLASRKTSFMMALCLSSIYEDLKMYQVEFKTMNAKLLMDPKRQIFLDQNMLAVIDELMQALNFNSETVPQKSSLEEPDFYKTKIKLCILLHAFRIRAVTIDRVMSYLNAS

Destabilized IL-12 #12 = target: T2, Destabilized IL-12 #12
T2 chain: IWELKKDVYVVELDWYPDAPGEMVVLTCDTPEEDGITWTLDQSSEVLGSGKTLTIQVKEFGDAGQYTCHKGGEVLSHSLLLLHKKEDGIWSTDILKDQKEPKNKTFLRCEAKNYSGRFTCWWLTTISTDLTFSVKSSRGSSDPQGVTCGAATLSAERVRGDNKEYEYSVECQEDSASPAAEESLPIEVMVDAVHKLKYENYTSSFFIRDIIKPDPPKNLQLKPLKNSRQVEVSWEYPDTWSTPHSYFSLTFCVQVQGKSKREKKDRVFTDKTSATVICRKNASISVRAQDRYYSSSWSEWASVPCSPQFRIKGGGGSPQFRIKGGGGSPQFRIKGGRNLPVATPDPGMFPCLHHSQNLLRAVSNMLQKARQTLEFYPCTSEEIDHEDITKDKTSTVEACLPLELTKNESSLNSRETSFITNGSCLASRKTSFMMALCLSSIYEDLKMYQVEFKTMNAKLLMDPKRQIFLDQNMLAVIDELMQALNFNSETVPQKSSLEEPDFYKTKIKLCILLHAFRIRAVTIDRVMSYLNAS

Destabilized IL-12 #18 = target: T3, Destabilized IL-12 #18
T3 chain: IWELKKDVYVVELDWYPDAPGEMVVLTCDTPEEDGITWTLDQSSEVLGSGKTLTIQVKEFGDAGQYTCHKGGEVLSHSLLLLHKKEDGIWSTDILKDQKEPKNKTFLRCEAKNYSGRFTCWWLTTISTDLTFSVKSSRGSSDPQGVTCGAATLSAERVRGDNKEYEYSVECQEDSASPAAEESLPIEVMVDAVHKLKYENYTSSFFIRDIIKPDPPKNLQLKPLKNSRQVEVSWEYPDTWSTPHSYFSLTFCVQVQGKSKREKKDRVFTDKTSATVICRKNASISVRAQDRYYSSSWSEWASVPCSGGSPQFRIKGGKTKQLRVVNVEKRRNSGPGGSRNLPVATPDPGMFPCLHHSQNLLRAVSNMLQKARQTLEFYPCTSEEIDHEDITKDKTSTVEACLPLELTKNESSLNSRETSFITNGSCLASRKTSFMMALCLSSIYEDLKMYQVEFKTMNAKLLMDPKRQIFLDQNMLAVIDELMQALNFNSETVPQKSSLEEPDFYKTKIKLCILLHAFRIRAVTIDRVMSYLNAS

Destabilized IL-12 #21 = target: T4, Destabilized IL-12 #21
T4 chain: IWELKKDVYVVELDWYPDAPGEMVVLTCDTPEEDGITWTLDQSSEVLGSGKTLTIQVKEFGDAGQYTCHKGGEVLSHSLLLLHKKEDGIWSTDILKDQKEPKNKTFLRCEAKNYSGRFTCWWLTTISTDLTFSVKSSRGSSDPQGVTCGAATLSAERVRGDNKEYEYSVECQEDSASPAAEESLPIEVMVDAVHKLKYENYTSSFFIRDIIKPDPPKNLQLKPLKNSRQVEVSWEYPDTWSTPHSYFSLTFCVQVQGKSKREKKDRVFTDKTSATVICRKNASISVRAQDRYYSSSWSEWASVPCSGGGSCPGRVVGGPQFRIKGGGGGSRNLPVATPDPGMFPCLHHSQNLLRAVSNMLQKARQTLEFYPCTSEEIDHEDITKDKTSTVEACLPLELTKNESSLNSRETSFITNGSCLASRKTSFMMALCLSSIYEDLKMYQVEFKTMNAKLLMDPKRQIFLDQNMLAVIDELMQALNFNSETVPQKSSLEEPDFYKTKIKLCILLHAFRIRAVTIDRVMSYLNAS

Destabilized IL-12 #27 = target: T5, Destabilized IL-12 #27
T5 chain: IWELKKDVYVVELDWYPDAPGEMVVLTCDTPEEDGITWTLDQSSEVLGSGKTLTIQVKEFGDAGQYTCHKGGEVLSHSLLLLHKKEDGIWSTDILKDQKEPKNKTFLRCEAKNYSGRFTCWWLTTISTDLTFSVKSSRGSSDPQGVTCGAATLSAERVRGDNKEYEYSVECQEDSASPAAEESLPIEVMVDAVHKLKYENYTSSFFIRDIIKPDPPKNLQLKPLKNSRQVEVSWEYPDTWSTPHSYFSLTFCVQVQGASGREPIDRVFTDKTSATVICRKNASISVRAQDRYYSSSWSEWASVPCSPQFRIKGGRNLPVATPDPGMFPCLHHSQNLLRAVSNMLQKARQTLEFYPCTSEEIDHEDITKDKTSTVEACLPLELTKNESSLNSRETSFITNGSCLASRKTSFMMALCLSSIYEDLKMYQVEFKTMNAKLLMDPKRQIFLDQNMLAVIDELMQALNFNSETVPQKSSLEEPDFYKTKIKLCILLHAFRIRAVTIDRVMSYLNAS

## thrombin
Destabilized IL-12 #2 [1]
  fold reduction in biological activity (NK-92 assay) after thrombin digestion, against wild-type single chain IL-12: (~11 fold decrease*)
  thrombin cleavage (67 U/mL, 20 hours, 37 degrees C), anti-p35 immunoblot, reducing conditions: Under reducing conditions, thrombin cleavage of all three IL-12 mutants was detected
  thrombin cleavage (67 U/mL, 20 hours, 37 degrees C), anti-p40 immunoblot, reducing conditions: Under reducing conditions, thrombin cleavage of all three IL-12 mutants was detected
Destabilized IL-12 #4
Chain of Destabilized IL-12 #4 (chain, as listed by the source): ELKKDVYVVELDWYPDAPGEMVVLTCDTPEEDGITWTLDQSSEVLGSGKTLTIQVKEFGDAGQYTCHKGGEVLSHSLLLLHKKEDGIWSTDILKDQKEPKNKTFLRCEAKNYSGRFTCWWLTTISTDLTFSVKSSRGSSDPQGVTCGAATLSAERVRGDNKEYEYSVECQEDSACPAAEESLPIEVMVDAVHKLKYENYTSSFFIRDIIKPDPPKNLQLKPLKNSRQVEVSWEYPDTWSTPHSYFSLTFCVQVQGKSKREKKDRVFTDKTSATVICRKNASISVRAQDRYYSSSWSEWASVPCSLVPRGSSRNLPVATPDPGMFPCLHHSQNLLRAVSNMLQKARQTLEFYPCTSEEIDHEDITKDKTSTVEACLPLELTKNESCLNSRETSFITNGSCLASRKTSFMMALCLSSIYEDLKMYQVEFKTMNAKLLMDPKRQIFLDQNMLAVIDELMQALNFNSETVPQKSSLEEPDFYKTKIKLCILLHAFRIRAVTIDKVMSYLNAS
  fold reduction in biological activity (NK-92 assay) after thrombin digestion, against wild-type single chain IL-12: (~1.5 fold decrease*)
  thrombin cleavage (67 U/mL, 20 hours, 37 degrees C), anti-p35 immunoblot, non-reducing conditions: under non-reducing conditions, thrombin cleavage of Destabilized #4 was not detected
  thrombin cleavage (67 U/mL, 20 hours, 37 degrees C), anti-p35 immunoblot, reducing conditions: Under reducing conditions, thrombin cleavage of all three IL-12 mutants was detected
  thrombin cleavage (67 U/mL, 20 hours, 37 degrees C), anti-p40 immunoblot, non-reducing conditions: under non-reducing conditions, thrombin cleavage of Destabilized #4 was not detected
  thrombin cleavage (67 U/mL, 20 hours, 37 degrees C), anti-p40 immunoblot, reducing conditions: Under reducing conditions, thrombin cleavage of all three IL-12 mutants was detected
Destabilized IL-12 #5 [2]
  fold reduction in biological activity (NK-92 assay) after thrombin digestion, against wild-type single chain IL-12: (~9 fold decrease*)
  thrombin cleavage (67 U/mL, 20 hours, 37 degrees C), anti-p35 immunoblot, reducing conditions: Under reducing conditions, thrombin cleavage of all three IL-12 mutants was detected
  thrombin cleavage (67 U/mL, 20 hours, 37 degrees C), anti-p40 immunoblot, reducing conditions: Under reducing conditions, thrombin cleavage of all three IL-12 mutants was detected

## thrombin (enzyme)
Destabilized IL-12 #2 [3]
  thrombin dose needed to reduce IFNg secretion of NK-92 cells (HTRF): 10 U/mL
Destabilized IL-12 #5 [4]
  thrombin dose needed to reduce IFNg secretion of NK-92 cells (HTRF): 10 U/mL

B1: human Plasmin (23.3 Units/mg; Millipore) (protein)
chain: KVYLSECKTGNGKNYRGTMSKTKNGITCQKWSSTSPHRPRFSPATHPSEGLEENYCRNPDNDPQGPWCYTTDPEKRYDYCDILECEEECMHCSGENYDGKISKTMSGLECQAWDSQSPHAHGYIPSKFPNKNLKKNYCRNPDRELRPWCFTTDPNKRWELCDIPRCTTPPPSSGPTYQCLKGTGENYRGNVAVTVSGHTCQHWSAQTPHTHNRTPENFPCKNLDENYCRNPDGKRAPWCHTTNSQVRWEYCKIPSCDSSPVSTEQLAPTAPPELTPVVQDCYHGDGQSYRGTSSTTTTGKKCQSWSSMTPHRHQKTPENYPNAGLTMNYCRNPDADKGPWCFTTDPSVRWEYCNLKKCSGTEASVVAPPPVVLLPDVETPSEEDCMFGNGKGYRGKRATTVTGTPCQDWAAQEPHRHSIFTPETNPRAGLEKNYCRNPDGDVGGPWCYTTNPRKLYDYCDVPQCAAPSFDCGKPQVEPKKCPGRVVGGCVAHPHSWPWQVSLRTRFGMHFCGGTLISPEWVLTAAHCLEKSPRPSSYKVILGAHQEVNLEPHVQEIEVSRLFLEPTRKDIALLKLSSPAVITDKVIPACLPSPNYVVADRTECFITGWGETQGTFGAGLLKEAQLPVIENKVCNRYEFLNGRVQSTELCAGHLAGGTDSCQGDSGGPLVCFEKDKYILQGVTSWGLGCARPNKPGVYVRVSRFVTWIEGVMRNN
Destabilized IL-12 #11
  proteolytic digestion, 1 hour, reducing SDS-PAGE and anti-p40 Western blot: Partial digestion of DSIL-12#11, DSIL-12#12, DSIL-12#21 and DSIL-12#18 was detected with as little as 0.05 mU of plasmin
Destabilized IL-12 #12
  proteolytic digestion, 1 hour, reducing SDS-PAGE and anti-p40 Western blot: Partial digestion of DSIL-12#11, DSIL-12#12, DSIL-12#21 and DSIL-12#18 was detected with as little as 0.05 mU of plasmin
Destabilized IL-12 #18
  proteolytic digestion, 1 hour, reducing SDS-PAGE and anti-p40 Western blot: Partial digestion of DSIL-12#11, DSIL-12#12, DSIL-12#21 and DSIL-12#18 was detected with as little as 0.05 mU of plasmin
Destabilized IL-12 #21
  proteolytic digestion, 1 hour, reducing SDS-PAGE and anti-p40 Western blot: Partial digestion of DSIL-12#11, DSIL-12#12, DSIL-12#21 and DSIL-12#18 was detected with as little as 0.05 mU of plasmin
Destabilized IL-12 #27
  proteolytic digestion, 1 hour, reducing SDS-PAGE and anti-p40 Western blot: 2.5 mU of plasmin were required for partial digestion of DSIL-12#27
